According to US20260224762A1, “RADIONUCLIDE LABELLED PEPTIDE CONJUGATE FOR SITE-SPECIFIC UPAR-TARGETING” (CURASIGHT A/S, priority 2023, published 2026):
“Also recorded” adds a separate entry of the source. Where two headings read alike, the source gives them in different places.

Assays:
[1] = target: uPAR (Homo sapiens, UniProt Q03405); assay: uPAR binding by Surface Plasmon Resonance (SPR); conditions: for SPR K(off) / SPR K(on): 18 degrees Celsius, HEPES pH 7.4
Method: Characterization of the binding properties of lead (Pb) labelled DOTA-AE105 to its target i.e. uPAR was measured by Surface Plasmon Resonance (SPR) and expressed as the binding constant (KD), which is a measure of affinity of the conjugate towards its target.
Characterizing the interaction between a target protein (in this case uPAR) and a ligand by SPR is a well-known method for the skilled person.
The target protein uPAR was captured, via a protein tag, onto a sensor chip and the test compound (Pb2+-DOTA-AE105 and Cu2+-DOTA-AE105 respectively) were dissolved in running buffer (10 mM HEPES buffer at pH 7.4, 150 mM NaCl, […]+0.05% Tween-20) and prepared in 5-point concentration series with three-fold dilution with top concentration around 500 nM of the test compound. The assay was conducted at 18 degrees Celsius.

[2] = set-up: species or system female NMRI nude mice; conditions: mouse, in vivo, 50 MBq
Method: The tumor binding and retention of 177Lu-DOTA-AE105 was evaluated in female NMRI nude mice bearing subcutaneous U87 MG tumors.
Animals were dosed with approximately 50 MBq 177Lu-DOTA-AE105 at study day 0. Tumor binding and retention of 177Lu-DOTA-AE105 was evaluated by SPECT/CT imaging at 0.5H, 2H and 24H after injection. The results for tumor binding and retention of 177Lu-DOTA-AE105 and the data for 67Cu-DOTA-AE105 from example 2 (table 5b) are summarized in table 6 below.

[3] = test system: subcutaneous U87 MG tumors; assay: Treatment efficacy of 177Lu-DOTA-AE105 in glioblastoma xenograft mice; assay type: in vivo, female NMRI nude mice; conditions: study day 18; group B 92.1 MBq p=0.32; group C three doses of about 30 MBq p=0.84
Method: Furthermore, the efficacy of 177Lu-DOTA-AE105 was tested in female NMRI nude mice bearing subcutaneous U87 MG tumors.
Animals were stratified into three groups (A, B, and C) based on tumor volume and body weight on study day 0. The mean inclusion volume was […] (range 15.0-339.0 mm^3), while the inclusion weight was 23.6±0.4 g (range […]).
Animals were dosed with either vehicle (group A) or 177Lu-DOTA-AE105 (group B, and C) at different activity levels on study day 0. Animals in group B received 92.1±1.7 MBq, animals in group C received 32.9±0.4 MBq. At study day 4 animals in group C received an additional dosing with 26.7±0.2 MBq and at study day 8 animals in group C were dosed with 30.7±0.2 MBq. Doses are calculated by retracting residual dose from the activity measured before injection. No decay correction has been applied.
Tumor volume and body weight was monitored twice a week after the first dosing. The efficacy was evaluated over a period of 5 weeks after first dosing. Each of the treatment groups were compared to the vehicle control group A.
Differences in tumor volume were evaluated at the latest timepoint where minimum 50% of animals were alive within each of the compared groups.

[4] = test system: tumor; conditions: in vivo; cited from earlier work
[5] = in vivo; set-up: species or system female NMRI nude mice; conditions: female, NMRI nude, mouse, 30 kBq, total radioactivity
Method: (§1) The biodistribution of 225Ac-DOTA-AE105 was evaluated in female NMRI nude mice bearing subcutaneous U87 MG tumors. The U87 MG tumor cell line is a human glioblastoma cell line. Animals were stratified into two groups (A and B) based on tumor volume and body weight on study day-2. Animals in group A were injected with 30 kBq of 225Ac-DOTA-AE105 having a specific activity of 30 kBq/nmol, animals in group B received a thousand-fold dose of DOTA-AE105 (cold construct) immediately before receiving 30 kBq of 225Ac-DOTA-AE105 having a specific activity of 30 kBq/nmol. The biodistribution was evaluated using conventional ex vivo biodistribution 1 hour (1H) after injection. The results are shown in FIG. 10 as percentage injected dose per gram (% ID/g) and are corrected for radioactive decay.

[6] = test system: subcutaneous U87 MG tumors; assay: in vivo; set-up: species or system female NMRI nude mice; conditions: mouse
Method: as §1

[7] = in vivo; set-up: species or system female NMRI nude mice; conditions: female, NMRI nude, mouse, iv, total radioactivity
Method: (§2) The biodistribution of 67Cu-DOTA-AE105 was evaluated in female NMRI nude mice bearing subcutaneous U87 MG tumors. The U87 MG tumor cell line is a human glioblastoma cell line. Animals were stratified into four groups (A, B, C, D) based on tumor volume and body weight on study day-2. Animals in group A were injected with 26.4±0.4 MBq, animals in group B received 55.1±0.2 MBq, animals in group C received 54.3±0.5 MBq and animals in group D received 55.2±0.2 MBq (mean±SEM). The biodistribution was evaluated using SPECT/CT imaging, 2H, 24H, 48H, 96H and 168H after injection. Furthermore, conventional ex vivo biodistribution was evaluated after final imaging timepoints 96H and 168H.
(§3) The results are shown in FIG. 1 as percentage injected dose per gram (% ID/g) and are corrected for radioactive decay. The data in FIG. 1 are derived from the in vivo SPECT/CT imaging.

[8] = test system: subcutaneous U87 MG tumors; assay: in vivo; set-up: species or system female NMRI nude mice; conditions: mouse; remark: listed apart in the source
Method: as §2, §3

Sequence of uPAR (Q03405 23-305): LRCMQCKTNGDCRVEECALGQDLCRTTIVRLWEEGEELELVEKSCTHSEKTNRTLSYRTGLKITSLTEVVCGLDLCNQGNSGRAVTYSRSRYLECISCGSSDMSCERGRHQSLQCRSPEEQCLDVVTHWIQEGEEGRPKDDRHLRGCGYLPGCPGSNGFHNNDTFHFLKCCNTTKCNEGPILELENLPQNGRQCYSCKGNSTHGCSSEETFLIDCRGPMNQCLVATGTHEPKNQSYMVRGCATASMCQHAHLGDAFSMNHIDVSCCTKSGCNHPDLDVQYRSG

For CC(C)C[C@H](NC(=O)[C@H](Cc1ccc(O)cc1)NC(=O)[C@@H](CCCNC(=N)N)NC(=O)[C@@H](CO)NC(=O)[C@H](Cc1ccccc1)NC(=O)[C@H](CC1CCCCC1)NC(=O)[C@@H](CC(=O)O)NC(=O)CN1CCN(CC(=O)O)CCN(CC(=O)O)CCN(CC(=O)O)CC1)C(=O)N[C@@H](Cc1c[nH]c2ccccc12)C(=O)N[C@@H](CO)C(N)=O [Pb2+-DOTA-AE105], the “SPR K(off)” value [1] was 1.78, the “SPR K(on)” value [1] was 0.102 and the “Affinity fold higher than Cu2+-DOTA-AE105” value ([1]; ratio of KD) was “more than 10 fold”.

CC(C)C[C@H](NC(=O)[C@H](Cc1ccc(O)cc1)NC(=O)[C@@H](CCCNC(=N)N)NC(=O)[C@@H](CO)NC(=O)[C@H](Cc1ccccc1)NC(=O)[C@H](CC1CCCCC1)NC(=O)[C@H](CC(=O)O)NC(=O)CN1CCN(CC(=O)O)CCN(CC(=O)O)CCN(CC(=O)O)CC1)C(=O)N[C@@H](Cc1c[nH]c2ccccc12)C(=O)N[C@@H](CO)C(N)=O [177Lu-DOTA-AE105, metal not drawn] gave a tissue uptake at 0.5 h [2] of 0.749 ± 0.166 %ID/g, a tissue uptake at 2 h [2] of 0.128 ± 0.011 %ID/g and a tissue uptake at 24 h [2] of 0.098 ± 0.001 %ID/g. For the same molecule, the “Tumor volume compared to vehicle control group / therapeutic effect” value [3] was “no significant difference; also recorded: did not show any therapeutical effect” and the “Tumor binding and tumor retention compared to the peptide alone” value [4] was “vastly decreased”.

For CC(C)C[C@H](NC(=O)[C@H](Cc1ccc(O)cc1)NC(=O)[C@@H](CCCNC(=N)N)NC(=O)[C@@H](CO)NC(=O)[C@H](Cc1ccccc1)NC(=O)[C@H](CC1CCCCC1)NC(=O)[C@@H](CC(=O)O)NC(=O)CN1CCN(CC(=O)O)CCN(CC(=O)O)CCN(CC(=O)O)CC1)C(=O)N[C@@H](Cc1c[nH]c2ccccc12)C(=O)N[C@@H](CO)C(N)=O [Cu2+-DOTA-AE105], the “SPR K(off)” value [1] was 19.95 and the “SPR K(on)” value [1] was 0.110.

In the case of CC(C)C[C@H](NC(=O)[C@H](Cc1ccc(O)cc1)NC(=O)C(CCCNC(=N)N)NC(=O)C(CO)NC(=O)C(Cc1ccccc1)NC(=O)[C@H](CC1CCCCC1)NC(=O)[C@H](CC(=O)O)NC(=O)CN1CCN(CC(=O)O)CCN(CC(=O)O)CCN(CC(=O)O)CC1)C(=O)N[C@@H](Cc1c[nH]c2ccccc12)C(=O)N[C@@H](CO)C(N)=O (single isomer, unassigned) [225Ac-DOTA-AE105, metal not drawn], the tissue uptake at 1 h [5] is reported as 3 %ID/g and the “Tumor binding, times higher compared to 177Lu-DOTA-AE105” value [6] is reported as “approximately 5 times”.

In the case of CC(C)C[C@H](NC(=O)[C@H](Cc1ccc(O)cc1)NC(=O)C(CCCNC(=N)N)NC(=O)C(CO)NC(=O)C(Cc1ccccc1)NC(=O)[C@H](CC1CCCCC1)NC(=O)[C@H](CC(=O)O)NC(=O)CN1CCN(CC(=O)O)CCN(CC(=O)O)CCN(CC(=O)O)CC1)C(=O)N[C@@H](Cc1c[nH]c2ccccc12)C(=O)N[C@@H](CO)C(N)=O (single isomer, unassigned) [67Cu-DOTA-AE105, metal not drawn], the tissue uptake at 2 h ([7]; 30 MBq) is reported as 5.31 ± 0.73 %ID/g, the tissue uptake at 24 h ([7]; 30 MBq) is reported as 5.02 ± 0.08 %ID/g and the tissue uptake at 48 h ([7]; 30 MBq) is reported as 3.44 ± 0.11 %ID/g. It also gave a tissue uptake at 96 h ([7]; 30 MBq) of 1.74 ± 0.22 %ID/g, a tissue uptake at 168 h ([7]; 30 MBq) of 0.88 ± 0.15 %ID/g and a tissue uptake at 2 h ([7]; 60 MBq) of 6.61 ± 1.11 %ID/g. The tissue uptake at 24 h ([7]; 60 MBq) was 6.47 ± 0.5 %ID/g, the tissue uptake at 48 h ([7]; 60 MBq) was 4.24 ± 0.14 %ID/g and the tissue uptake at 96 h ([7]; 60 MBq) was 1.7 ± 0.07 %ID/g. For the same molecule, the tissue uptake at 168 h ([7]; 60 MBq) was 0.64 ± 0.05 %ID/g, the “Tumor binding, times higher compared to 177Lu-DOTA-AE105” value [8] was “approximately 50 times” and the “Uptake in other organs such as heart, kidney, and muscle” value [8] was “low uptake”.
